This note sets out measurements from US20110071089A1.

In test [1] the target is T1, human TRPV6b expressed in LnCaP cells (transfected with pCAGS-IRES-hTRPV6b) (human), Q9H1D0.
T1 chain: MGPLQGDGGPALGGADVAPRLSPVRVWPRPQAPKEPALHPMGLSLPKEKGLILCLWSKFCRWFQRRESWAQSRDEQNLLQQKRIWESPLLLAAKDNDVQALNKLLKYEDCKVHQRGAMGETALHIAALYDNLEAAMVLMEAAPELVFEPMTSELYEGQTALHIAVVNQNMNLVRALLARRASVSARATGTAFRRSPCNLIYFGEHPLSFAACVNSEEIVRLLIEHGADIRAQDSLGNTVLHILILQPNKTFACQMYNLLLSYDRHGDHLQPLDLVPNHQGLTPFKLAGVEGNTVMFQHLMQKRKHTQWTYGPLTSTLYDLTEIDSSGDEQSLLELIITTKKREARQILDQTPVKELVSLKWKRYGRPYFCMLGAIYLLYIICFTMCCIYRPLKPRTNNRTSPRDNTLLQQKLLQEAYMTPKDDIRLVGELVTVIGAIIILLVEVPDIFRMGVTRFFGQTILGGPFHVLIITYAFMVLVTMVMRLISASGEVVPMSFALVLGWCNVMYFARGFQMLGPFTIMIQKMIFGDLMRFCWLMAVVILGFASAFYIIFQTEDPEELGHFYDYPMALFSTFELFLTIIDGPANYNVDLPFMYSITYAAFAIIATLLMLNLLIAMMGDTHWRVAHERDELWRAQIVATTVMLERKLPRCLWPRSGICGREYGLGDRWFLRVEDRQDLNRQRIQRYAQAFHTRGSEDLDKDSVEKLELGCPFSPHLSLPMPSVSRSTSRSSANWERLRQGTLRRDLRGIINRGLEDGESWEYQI

Test [2] has as its target T1, human TRPV6b expressed in LnCaP cells …. As to the kind of experiment: cell-based or functional assay.

Usually Kd stands for a measure of binding affinity in units of concentration. Lower therefore signals a tighter complex.

For the molecule KEFLHPSKVDLPR (modifications not checked) [SorC13], in test [1], the Kd was determined as 100 nM. Besides, the inhibition constant of calcium current (whole-cell patch clamp) in test [2] was found to be 100 nM.
Consider EGKLSSNDTEGGLCKEFLHPSKVDLPR (modifications not checked) [SorC27], for which the Kd in test [1] was 140 nM. Also, the inhibition constant of calcium current (whole-cell patch clamp) in test [2] was 100 nM.
